Source: a protein production outcome set (Wang et al. 2014)

Test: label from the status in PepcDB records

Row | Sequence | protein production
1 | MHLFIEGEIEHLVFPGLKSYIVPVWDLRTYQIFDMALRVHKNIQQRDMVIGRNLGNWILRGLDRMKPSAQVLLPKNTEPSIDKAKRVLQSTRLKPHVNTQTPQNREVDRNLFMSLRNFRSKYPIASMMMIKPPRSTGTTTQYRPYSVGESSLIKPIYARGGFNSVIRKDILQWMVQKR | failed
2 | MSEPIDILIAGAGIGGLSCALALHQAGIGKVTLLESSSEIRPLGVGINIQPAAVEALAELGLGPALAATAIPTHELRYIDQSGATVWSEPRGVEAGNAYPQYSIHRGELQMILLAAVRERLGQQAVRTGLGVERIEERDGRVLIGARDGHGKPQALGADVLVGADGIHSAVRAHLHPDQRPLSHGGITMWRGVTEFDRFLDGKTMIVANDEHWSRLVAYPISARHAAEGKSLVNWVCMVPSAAVGQLDNEADWNRDGRLEDVLPFFADWDLGWFDIRDLLTRNQLILQYPMVDRDPLPHWGRGRITLLGDAAHLMYPMGANGASQAILDGIELAAALARNADVAAALREYEEARRPTANKIILANREREKEEWAAASRPKTEKSAALEAITGSYRNQVERPRLEHHHHHH | not failed
3 | AENNMVRLSRIIIDPERLEEYNAYLKEEIEVSMRLEPGVLVLYAVAEKERPNHVTILEIYADEAAYKSHIATPHFKKYKEGTLDMVQMLELIDATPLIPGLKMK | not failed
4 | MEHWNKTFCLEVKGDYACFTRPEMKVERVSYDVITPSAARGIFEAIFWKPAIRWRIRKIEVLNPIKWISVRRNEVGQTASERSDGIFIETARQQRAGLFLRDVAYRLHAELEFVPPSERPDAKRPVPESLQDGRETSELRKDENPGKYYAIFERRARKGQCFNQPYLGCREFSCEFRLVDDLANEPPPISETRNLGFMLYDLDFQKNLKEPPPAFFPACLEKGVIKVPDWESEEVRK | failed
5 | MKGMKYHDYIWDLGGTLLDNYETSTAAFVETLALYGITQDHDSVYQALKVSTPFAIETFAPNLENFLEKYKENEARELEHPILFEGVSDLLEDISNQGGRHFLVSHRNDQVLEILEKTSIAAYFTEVVTSSSGFKRKPNPESMLYLREKYQISSGLVIGDRPIDIEAGQAAGLDTHLFTSIVNLRQVLDI | not failed
6 | MGHHHHHHSHEELPPTTELEEGLRNGVYLAKLAKFFAPKMVSEKKIYDVEQTRYKKSGLHFRHTDNTVQWLRAMESIGLPKIFYPETTDVYDRKNIPRMIYCIHALSLYLFKLGIAPQIQDLLGKVDFTEEEISNMRKELEKYGIQMPSFSKIGGILANELS | failed
7 | MKLVCISDTHSLHRRIPEIPDGDVLIHAGDSLGQGSLENIEDLNDWLGTLPHRHKIVIAGNHDWAFQEMPGEARTALSNAVYLEDSGVEIEGNRFWGSPWTPTFMDWAFMLERGEPLYQKWQLVPDNTDVLITHGPPKGIGDEANLGFKCQNVGCVDLLARIHQLSLKAHIFGHIHEGYGEYLRGKTRLINASTCTARYEPRNAPIVVDVLEHHHHHH | failed
8 | MQAVLTAALPVFALILTGWLAARWRVLGPSATDALNRYVVYLSLPALLFRAMAQADLRQLADYWGFTAAVAGGIALTFGAAILACRRDGARLTDLSLEGLATSYGNAGYMGIPLCLALLGPASLAPAIITTLLTACVLFGVAIALIEFDQHRDRHWSATLLKVARALLRNPLLAAPLLGLACAAAGITLPAGLDNYAALLGASASPCALVTIGLFLAQSQPGGDRGTVGLMVDGKLLLHPAVTAVLAFAVFDMPPLWAWCAVLMAALPIGTGPFMLAQLYGRDARPSSRAILLSTVLSVPTITALVAWIGRQPLG | failed
9 | MRLITHNMLSCNIKGVTSGFPLRIEAGNVIEKEVDFNPDFIRHMFAKIEWKALVEGARSMGYAELPEESPDAAVLKSDEPFLKKLHHALLELHLEEGALVCPETGRKFPVNKGIPNMLLHEDEV | failed
10 | MSAPSSPSTSQTRPPARSLWRRRRTWFLVGGGGLGAAAVVVLLGIWWRSPTPEAAIALRQSDFAELRWQSRFAMDAATRQRARFLYALAIAPDQPQAALQALQGLERSYPLLGPYILKLRAQVQTQLGQDPRETWRQLLNTYPESPVQAEAVLALGQWDLAPATIQRWPRYPASNELARQLAKRQPAEAKRWLLQIAQFGRYRFDIDAVLSELQALPNLTARDRQQIADAYWQRDDYATAADLYARSPQTDETLYRQARSLDLTSQPEVARTLYQQLLQRFPQSPERERALVHLVRLDPANRDRYLQLLERQFALSLPEALGLAAATEPRYRPILLQRFPASPEAAALRWQQAWQQAEAGNLPQAIALVTQTRDRSPTIEAAAQAGFWLGRWQTQLGQTDAAQAAWQWVLQQHPDSYYAWRSAAALGWPVGDFSQVQAQQPAWPQAQSPQALPAGSAVLKELYALGQTEDAWRLWQQEGPSRDPSPSDRFISALLEASISRYDRAASLLKGLPIDSPLRQRSDFVSTLYPVVFKEEITAATQRDRLNPLLVLGLIRQESRFLPGATSVVGARGLMQLMPETAAEVAAELGLQQYDLGDPQTNIQLGSRYLRNVLDYWREDSLFAIASYNAGPGNVENWVRRFGRRDRDRWLEQIPFPETRDYVEKVLSNYWNYLRQSDRSLEQRLQQLDR | failed
11 | MRLVSLLPSATEIIAALGLLPFLVGRSHECDYPPEVKALPVCTRARLNAQQSSLAIDRVVQELLRAALGIYDLELATLQALKPTHIITQDQCDVCAVTLPDVQRAIADLLEPPPQLISLQPHCLEDIWEDIRRVGLTLGVAPDPLLTVLKERMRACQRRVSDRPRRQVVAIEWIDPPMASGNWIPELIALAGGENMLGTAGKHSPYIEWSTLLAIDPEVILVMPCGFDLERTRQELDQALQTYPQWQQLRALQTGQLYILDGNAYFNRPGPRLVDSLEILVEILHPCPEPKFHGVGWRPYVGPSMAKMSDEG | failed
12 | MIRVLFFIRMTMSRTIQRICLFLFCLPVFGSCMKWDYGEMEDFSVSASGLFITNEGNFQYSNATLSYYDPATCEVENEVFYRANGFKLGDVAQSMVIRDGIGWIVVNNSHVIFAIDINTFKEVGRITGFTSPRYIHFLSDEKAYVTQIWDYRIFIINPKTYEITGYIECPDMDMESGSTEQMVQYGKYVYVNCWSYQNRILKIDTETDKVVDELTIGIQPTSLVMDKYNKMWTITDGGYEGSPYGYEAPSLYRIDAETFTVEKQFKFKLGDWPSEVQLNGTRDTLYWINNDIWRMPVEADRVPVRPFLEFRDTKYYGLTVNPNNGEVYVADAIDYQQQGIVYRYSPQGKLIDEFYVGIIPGAFCWK | failed
13 | MVTPIAVVGPTASGKSALGIALAHKLDGEVVNVDSMQLYKGMDIGTAKLTVEEREGIAHHQLDVWDVTETASVARFQSDAVADVEDIMSRGKTPILVGGSMLYVQSLVDDWQFPPTDSAVRARFEARLADIGVEALHAELTQLDPEAAAVIESNDPRRTVRALEVIELTGQPFQASQPPKDAPPRWGTRIIGLKTTPEWLNPRIEQRTARMFEQGFVAEVEHLVQQGLIADSTAGRAIGYSQVLAAMAGEMTWEDAFERTVTGTRRYVRRQRSWFNRDHRVSWVDASGDPTAQALEILGLQLEHHHHHH | not failed
14 | MKTVILIGALGKMGQAALTGLSKHKVITAGRSGNVDHLVDITNENSIRALYEKVGHFDAVVNTVGFCEYATFAEMTEAQWMTTVMSKMMGQINLVRIGQEYIADKGSFTLISGILNVKPIPCAIADATTSGAIDTFVKCVAYEMQRGTRINVVNPTVLTEAWDVYGDMMPGFEPVPSTLVGKAFERSVDGFINGEVLFVDALEHHHHHH | not failed
15 | MNLINMSNFTSGRRLLRFAVVADSHLNPVNAGNTSPWQTNHLANPRNEVVVAAINRIAPAFTVHVGDVVHPLPHSTDYDGAADFATTLYRGLQAPFYIAPGNHDIGDKHLPGNPAACISADSCGKYEQHFGAQWQAFTEGNVCFIIINACLLGSGLPQEDAQWQFLQSRLAEEKAAGRRLFLFTHYPPFVTAPDEENHYDNIDHGPRRRLLELTASAGVEALFAGHVHTFFLNRHAGMWSYALPSSTNFRQDYAELFRVEPGEELGRNDLGKFGFFVVDIHEHGHIARFVRTYGSTDPAQGEEIALQVEGDVREHAAGTVAADFRHDWARVEALPYNPPLDAFVRKRVRNDYYILNLWDAGMRGVRLPIHDIADEQAFERVRLLGELGHRCLVFGTAVPDAHLLERLASLGPALEGYEWIGPDSAIAAHAAGQFARRGIRLFVAPVMQPPSSHSQGQYDHNMTSGIALGELDHLARFRPQRADASAPGVVVRIAGDEPVLESVRQAVEQAASHGVAIALHINLANRKSALVNDDDQAQAARVAEAAIAKAAYPDVPMTLDTFMDIDRGYFARHGLVDRRNNPRPAATVLRRLSERLRGHAVRIGAITREPAQSTVRIALGDQTLDVRIGRDISF | failed
